Results published in patent US20120219559A1 (Johns Hopkins, published 2012).

Tests used:
[1] = target: human CD28, full length, expressed on cells (CD28+293T cells) (human) (UniProt P10747); assay: cell-based or functional assay
[2] = target: T1, T61A; assay: flow cytometry on 293T cells expressing B7-H2-GFP mutants; normalised to wild type B7-H2 (100%) and vector control (0%)
T1 sequence (chain, by the resolver, C terminal GFP fusion, not carried in the letters): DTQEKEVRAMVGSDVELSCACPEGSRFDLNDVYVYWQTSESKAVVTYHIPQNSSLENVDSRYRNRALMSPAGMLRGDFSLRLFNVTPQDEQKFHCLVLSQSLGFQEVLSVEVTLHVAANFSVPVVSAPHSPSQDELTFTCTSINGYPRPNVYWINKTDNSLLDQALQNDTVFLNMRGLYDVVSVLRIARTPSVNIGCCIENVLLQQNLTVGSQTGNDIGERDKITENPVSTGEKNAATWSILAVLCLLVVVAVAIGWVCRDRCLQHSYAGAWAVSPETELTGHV

[3] = target: T2, B7-2; assay: CDS well image, 293T cells transfected with the mouse gene, stained with the mouse fusion protein
T2 chain: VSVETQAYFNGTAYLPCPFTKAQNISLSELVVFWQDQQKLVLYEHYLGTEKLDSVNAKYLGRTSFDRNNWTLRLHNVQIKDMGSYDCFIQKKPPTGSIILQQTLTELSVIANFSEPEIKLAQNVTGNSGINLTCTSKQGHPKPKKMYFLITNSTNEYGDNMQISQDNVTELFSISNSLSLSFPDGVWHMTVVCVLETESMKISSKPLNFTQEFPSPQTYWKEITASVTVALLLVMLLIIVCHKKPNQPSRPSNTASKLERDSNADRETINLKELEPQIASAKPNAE

[4] = target: T3, ICOS (Mus musculus, UniProt Q9WVS0); assay: as above
T3 sequence (membrane protein, looked up): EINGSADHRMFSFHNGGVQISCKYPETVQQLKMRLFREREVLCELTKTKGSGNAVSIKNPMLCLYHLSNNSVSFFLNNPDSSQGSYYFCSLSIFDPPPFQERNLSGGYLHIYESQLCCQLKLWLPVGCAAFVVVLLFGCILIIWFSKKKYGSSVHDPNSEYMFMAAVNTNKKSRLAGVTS

[5] = target: T4, CD28 (Mus musculus, UniProt P31041); assay: as above
T4 sequence (membrane protein, looked up): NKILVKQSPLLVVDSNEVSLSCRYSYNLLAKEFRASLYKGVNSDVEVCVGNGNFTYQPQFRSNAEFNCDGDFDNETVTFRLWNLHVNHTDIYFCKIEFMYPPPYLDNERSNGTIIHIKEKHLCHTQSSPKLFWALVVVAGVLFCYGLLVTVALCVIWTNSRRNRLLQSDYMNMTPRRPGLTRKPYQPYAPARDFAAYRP

[6] = target: T5, B7-DC (Mus musculus, UniProt Q9WUL5); assay: as above
T5 sequence (membrane protein, looked up): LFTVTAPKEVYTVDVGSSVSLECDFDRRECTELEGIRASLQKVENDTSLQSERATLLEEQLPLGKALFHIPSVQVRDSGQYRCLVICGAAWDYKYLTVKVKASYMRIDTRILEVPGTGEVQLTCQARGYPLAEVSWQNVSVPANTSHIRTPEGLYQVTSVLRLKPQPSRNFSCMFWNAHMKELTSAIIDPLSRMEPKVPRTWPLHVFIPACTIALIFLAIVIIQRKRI

[7] = target: B7-H1 (Mus musculus, UniProt Q9EP73); assay: as above
Chain of B7-H1 (Q9EP73 19-290 limits assumed): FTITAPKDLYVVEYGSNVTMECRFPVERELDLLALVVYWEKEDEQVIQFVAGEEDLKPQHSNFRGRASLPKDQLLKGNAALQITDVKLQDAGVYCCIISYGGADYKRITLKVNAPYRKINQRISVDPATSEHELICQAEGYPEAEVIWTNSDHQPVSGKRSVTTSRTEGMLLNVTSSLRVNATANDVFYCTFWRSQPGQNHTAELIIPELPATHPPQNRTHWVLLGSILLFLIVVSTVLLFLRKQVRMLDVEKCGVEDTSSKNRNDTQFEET

[8] = target: T6, PD-1 (Mus musculus, UniProt Q02242); assay: as above
T6 sequence (membrane protein, looked up): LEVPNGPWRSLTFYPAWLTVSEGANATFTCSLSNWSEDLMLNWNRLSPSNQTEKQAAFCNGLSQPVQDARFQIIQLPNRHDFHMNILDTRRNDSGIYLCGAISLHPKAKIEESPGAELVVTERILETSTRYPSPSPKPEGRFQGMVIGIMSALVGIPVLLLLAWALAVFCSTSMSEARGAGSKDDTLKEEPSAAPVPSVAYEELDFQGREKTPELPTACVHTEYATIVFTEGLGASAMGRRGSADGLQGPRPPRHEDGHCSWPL

[9] = target: CTLA-4 (Mus musculus, UniProt P09793); assay: as above
[10] = target: T7, mouse B7-H2, full length, expressed on 293T cells (mouse, UniProt Q9JHJ8 44-322); assay: as above
T7 construct: whole, on cells
T7 sequence (looked up): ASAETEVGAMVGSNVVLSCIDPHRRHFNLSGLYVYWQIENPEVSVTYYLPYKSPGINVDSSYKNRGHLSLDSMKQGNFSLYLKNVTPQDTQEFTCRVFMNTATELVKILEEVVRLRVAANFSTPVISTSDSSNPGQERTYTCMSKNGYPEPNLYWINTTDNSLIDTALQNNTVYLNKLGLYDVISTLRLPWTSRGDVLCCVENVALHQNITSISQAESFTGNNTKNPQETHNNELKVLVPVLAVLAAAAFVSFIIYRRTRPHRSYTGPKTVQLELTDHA

[11] = target: T8, B7-1; assay: as above
T8 chain: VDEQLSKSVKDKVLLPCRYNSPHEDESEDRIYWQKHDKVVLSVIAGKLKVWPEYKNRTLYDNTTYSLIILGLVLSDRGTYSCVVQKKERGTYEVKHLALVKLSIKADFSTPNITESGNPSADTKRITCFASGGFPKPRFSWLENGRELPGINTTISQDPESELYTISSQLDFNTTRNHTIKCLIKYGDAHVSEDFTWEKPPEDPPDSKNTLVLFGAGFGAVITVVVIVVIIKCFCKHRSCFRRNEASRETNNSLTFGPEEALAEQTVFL

[12] = target: T9, human B7-H7Ig fusion protein (human, UniProt Q9UM44 23-344); assay: CDS screen: 384-well plate of 293T cells, one human transmembrane gene a well; B7-H7Ig plus anti-mIg FMAT blue; total fluorescence per well
T9 construct: not shown: Ig Fc tag; made from pMIgV or pHIgV plasmid and detected with anti-mouse Ig
T9 sequence: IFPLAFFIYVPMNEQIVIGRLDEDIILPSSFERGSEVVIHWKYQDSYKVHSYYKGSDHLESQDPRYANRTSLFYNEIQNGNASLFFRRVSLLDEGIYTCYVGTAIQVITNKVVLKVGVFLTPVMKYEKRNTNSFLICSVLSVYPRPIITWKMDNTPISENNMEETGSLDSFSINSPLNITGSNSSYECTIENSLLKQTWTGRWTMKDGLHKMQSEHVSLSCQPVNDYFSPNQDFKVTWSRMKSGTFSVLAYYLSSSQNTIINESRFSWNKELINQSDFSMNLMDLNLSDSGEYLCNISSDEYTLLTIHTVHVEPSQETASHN

[13] = target: T10, mouse B7-H2/hB7-H2IgV chimera, expressed on 293T cells (human; mouse, UniProt Q9JHJ8 150-322); assay: flow cytometry, 293T cells expressing the mouse B7-H2/hB7-H2IgV chimera (mB7-H2/hB7-H2IgV+ 293T)
T10 construct: range 150-C-terminus; Mouse B7-H2 Ig V region (Met1-Val149) replaced with the corresponding human region (Met1-Gln123) in the mouse B7-H2 full length gene; also called chimeric gene product
T10 sequence: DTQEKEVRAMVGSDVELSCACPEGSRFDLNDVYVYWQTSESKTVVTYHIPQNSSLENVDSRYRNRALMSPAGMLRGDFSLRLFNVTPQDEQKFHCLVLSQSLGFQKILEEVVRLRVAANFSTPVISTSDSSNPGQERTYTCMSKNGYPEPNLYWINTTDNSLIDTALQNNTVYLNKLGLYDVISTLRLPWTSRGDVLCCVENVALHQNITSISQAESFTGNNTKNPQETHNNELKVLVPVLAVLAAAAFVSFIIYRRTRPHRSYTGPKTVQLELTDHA
Protocol: FIGS. 19A-19B. […] The results were analyzed by flow cytometry.

Chain of human CD28, full length, expressed on cells (CD28+293T cells) (human) (P10747 19-220): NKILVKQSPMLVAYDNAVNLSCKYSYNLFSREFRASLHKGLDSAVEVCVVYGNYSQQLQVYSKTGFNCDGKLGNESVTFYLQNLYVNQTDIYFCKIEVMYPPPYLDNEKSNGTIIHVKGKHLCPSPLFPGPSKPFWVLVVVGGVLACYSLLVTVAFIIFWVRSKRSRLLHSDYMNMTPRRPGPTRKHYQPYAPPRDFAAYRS

| Molecule | binding result [3] | binding result [4] | binding result [5] | binding result [6] | binding result [7] | binding result [8] | binding result [9] | binding result [10] | binding result [11] | also measured |
| --- | --- | --- | --- | --- | --- | --- | --- | --- | --- | --- |
| mouse anti-human CD28 mAb CD28.6 (blocking) (antibody) | – | – | – | – | – | – | – | – | – | tetanus toxoid-elicited proliferation of memory T cells; inhibition [1]: > 50% |
| human CTLA4Ig fusion protein (from UniProt P16410 37-162) (Fc fusion) | – | – | – | – | – | – | – | – | – | Binding Percentage% [2]: 32.1% |
| B7-2Ig (Fc fusion, also called mouse B7-2Ig fusion protein; not shown: Ig (Fc) part and any linker of the R&D Systems fusion protein) VSVETQAYFNGTAYLPCPFTKAQNISLSELVVFWQDQQKLVLYEHYLGTEKLDSVNAKYLGRTSFDRNNWTLRLHNVQIKDMGSYDCFIQKKPPTGSIILQQTLTELSVIANFSEPEIKLAQNVTGNSGINLTCTSKQGHPKPKKMYFLITNSTNEYGDNMQISQDNVTELFSISNSLSLSFPDGVWHMTVVCVLETESMKISSKPLNFTQEFPSPQTYWK | no binding | no binding | binds | no binding | no binding | no binding | binds | no binding | no binding | – |
| human B7-H7CR, full length, expressed on 293T cells (B7-H7CR+293T cells) (receptor, This id also stands for B7-H7CR on human CD4+ T cells in the functional rows; also called TMIGD2; B7-H7R) LSVQQGPNLLQVRQGSQATLVCQVDQATAWERLRVKWTKDGAILCQPYITNGSLSLGVCGPQGRLSWQAPSHLTLQLDPVSLNHSGAYVCWAAVEIPELEEAEGNITRLFVDPDDPTQNRNRIASFPGFLFVLLGVGSMGVAAIVWGAWFWGRRSCQQRDSGNSPGNAFYSNVLYRPRGAPKKSEDCSGEGKDQRGQSIYSTSFPQPAPRQPHLASRPCPSPRPCPSPRPGHPVSMVRVSPRPSPTQQPRPKGFPKVGEE | – | – | – | – | – | – | – | – | – | binding result [12]: binds |
| mouse CD28Ig fusion protein (Fc fusion, UniProt P31041 20-149, looked up, Bought from R&D Systems; Ig (Fc) part not given) NKILVKQSPLLVVDSNEVSLSCRYSYNLLAKEFRASLYKGVNSDVEVCVGNGNFTYQPQFRSNAEFNCDGDFDNETVTFRLWNLHVNHTDIYFCKIEFMYPPPYLDNERSNGTIIHIKEKHLCHTQSSPK | – | no binding | no binding | no binding | no binding | no binding | no binding | no binding | – | binding result [13]: binds |
| B7-1Ig (Fc fusion, also called mouse B7-1Ig fusion protein; not shown: Ig (Fc) part and any linker of the R&D Systems fusion protein) VDEQLSKSVKDKVLLPCRYNSPHEDESEDRIYWQKHDKVVLSVIAGKLKVWPEYKNRTLYDNTTYSLIILGLVLSDRGTYSCVVQKKERGTYEVKHLALVKLSIKADFSTPNITESGNPSADTKRITCFASGGFPKPRFSWLENGRELPGINTTISQDPESELYTISSQLDFNTTRNHTIKCLIKYGDAHVSEDFTWEKPPEDPPDSKN | no binding | no binding | – | no binding | – | no binding | – | no binding | no binding | – |
